Values of other authors, collected in publication PMC12362618, “Development of the First Small-Molecule Inhibitor Targeting Oncostatin M for Treatment of Breast Cancer” (Journal of Medicinal Chemistry, 2025).

Target: gp130 (Homo sapiens) (UniProt P40189)
Sequence (P40189 23-619): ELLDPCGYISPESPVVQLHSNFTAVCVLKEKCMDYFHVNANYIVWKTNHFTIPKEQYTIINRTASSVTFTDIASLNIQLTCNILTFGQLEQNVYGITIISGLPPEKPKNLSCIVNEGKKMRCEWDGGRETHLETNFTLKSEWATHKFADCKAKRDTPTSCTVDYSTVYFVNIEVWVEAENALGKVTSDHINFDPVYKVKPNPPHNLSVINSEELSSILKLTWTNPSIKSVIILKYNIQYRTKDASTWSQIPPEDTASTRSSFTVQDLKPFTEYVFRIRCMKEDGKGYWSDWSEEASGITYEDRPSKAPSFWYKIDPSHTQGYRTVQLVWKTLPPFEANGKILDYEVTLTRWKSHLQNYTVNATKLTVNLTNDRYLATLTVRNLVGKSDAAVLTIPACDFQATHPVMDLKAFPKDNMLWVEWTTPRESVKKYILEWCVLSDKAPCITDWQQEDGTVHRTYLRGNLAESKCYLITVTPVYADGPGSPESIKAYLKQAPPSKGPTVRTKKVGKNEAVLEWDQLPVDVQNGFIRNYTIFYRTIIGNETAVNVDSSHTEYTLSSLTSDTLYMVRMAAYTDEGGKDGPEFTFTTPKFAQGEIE

Sequence of OSM (P13725 26-221): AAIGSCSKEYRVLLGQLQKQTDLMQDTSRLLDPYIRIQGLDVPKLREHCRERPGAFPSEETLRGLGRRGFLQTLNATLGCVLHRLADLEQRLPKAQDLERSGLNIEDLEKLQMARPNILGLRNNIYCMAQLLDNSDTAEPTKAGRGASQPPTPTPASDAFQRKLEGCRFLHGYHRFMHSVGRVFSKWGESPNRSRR

## OSM (from UniProt P13725)
  Kd: 22.7 nM
